These binders were tested against T1, HLA-A*01:01 (human) (assay: UV-ligand exchange, anti-b2m ELISA).
T1 construct: MHC class I monomer first loaded with a UV-sensitive peptide (not identified) that is cleaved by UV irradiation and exchanged for the tested peptide; captured on streptavidin plates, detected with anti-β2m; also called peptide-receptive MHC molecules
Source text: Candidate peptides for T cell based therapies according to the present invention were further tested for their MHC binding capacity (affinity). The individual peptide-MHC complexes were produced by UV-ligand exchange, where a UV-sensitive peptide is cleaved upon UV-irradiation and exchanged with the peptide of interest as analyzed. Only peptide candidates that can effectively bind and stabilize the peptide-receptive MHC molecules prevent dissociation of the MHC complexes. To determine the yield of the exchange reaction, an ELISA was performed based on the detection of the light chain (β2m) of stabilized MHC complexes. The assay was performed as generally described in Rodenko et al. (Rodenko et al., 2006)
96 well MAXISorp plates (NUNC) were coated over night with 2 ug/ml streptavidin in PBS at room temperature, washed 4× and blocked for 1 h at 37° C. in 2% BSA containing blocking buffer. Refolded HLA-A*02:01/MLA-001 monomers served as standards, covering the range of 15-500 ng/ml. Peptide-MHC monomers of the UV-exchange reaction were diluted 100-fold in blocking buffer. Samples were incubated for 1 h at 37° C., washed four times, incubated with 2 ug/ml HRP conjugated anti-β2m for 1 h at 37° C., washed again and detected with TMB solution that is stopped with […]. Absorption was measured at 450 nm.

**Q.** STDPNIVRK was tested. Which peptide exchange yield did it give?
**A.** 50 to 75%

**Q.** Which peptide exchange yield does the source give for RTDEGDNRVW here?
**A.** 20 to 50%

**Q.** Which peptide exchange yield does the source give for NLDHYTNAY here?
**A.** 50 to 75%

**Q.** With SIEIDHTQY as the binder, how does the peptide exchange yield read?
**A.** 20 to 50%

**Q.** Which peptide exchange yield does the source give for LSDNAANRY here?
**A.** 50 to 75%

**Q.** How did the peptide exchange yield turn out when VDPIGHLY was run?
**A.** 20 to 50%

**Q.** With YTADNEMGYY as the binder, how does the peptide exchange yield read?
**A.** 50 to 75%

**Q.** Which peptide exchange yield does the source give for VSDSTTEITY here?
**A.** 50 to 75%

**Q.** With DTTSHTYLQY as the binder, how does the peptide exchange yield read?
**A.** 20 to 50%

**Q.** Which peptide exchange yield does the source give for LSQDELSKF here?
**A.** 20 to 50%

**Q.** With SQNGQLIHY as the binder, how does the peptide exchange yield read?
**A.** 50 to 75%

**Q.** How did the peptide exchange yield turn out when RYLNIVHATQLY was run?
**A.** 20 to 50%

**Q.** With EADPFLKYL as the binder, how does the peptide exchange yield read?
**A.** 20 to 50%

**Q.** For LMDEGAVLTL, which peptide exchange yield is on record?
**A.** 20 to 50%

**Q.** With GVGFTELEY as the binder, how does the peptide exchange yield read?
**A.** 50 to 75%

**Q.** Which peptide exchange yield does the source give for LLEGEDAHLTQY here?
**A.** 50 to 75%

**Q.** Which peptide exchange yield does the source give for LLPLLVMAY here?
**A.** 20 to 50%

**Q.** Which peptide exchange yield does the source give for CYTADNEMGY here?
**A.** 50 to 75%

**Q.** SSERGSPIEKY was tested. Which peptide exchange yield did it give?
**A.** 50 to 75%

**Q.** How did the peptide exchange yield turn out when GYVCNACGLY was run?
**A.** 20 to 50%

**Q.** How did the peptide exchange yield turn out when MTDVFIDY was run?
**A.** 50 to 75%

**Q.** Which peptide exchange yield does the source give for ARLEGEIATY here?
**A.** 20 to 50%

**Q.** How did the peptide exchange yield turn out when LCAAVLAKY was run?
**A.** 20 to 50%

**Q.** SLPEFGLTYY was tested. Which peptide exchange yield did it give?
**A.** 20 to 50%

**Q.** NSMLDPLVY was tested. Which peptide exchange yield did it give?
**A.** > 75%

**Q.** With VQDPSLPVY as the binder, how does the peptide exchange yield read?
**A.** 20 to 50%

**Q.** How did the peptide exchange yield turn out when NAVDVVPSSF was run?
**A.** 10 to 20%

**Q.** Which peptide exchange yield does the source give for LLEADPFLKY here?
**A.** > 75%

**Q.** With FTAQLQLY as the binder, how does the peptide exchange yield read?
**A.** 50 to 75%

**Q.** QITPKHNGLY was tested. Which peptide exchange yield did it give?
**A.** 20 to 50%

**Q.** LSAQHRMLA was tested. Which peptide exchange yield did it give?
**A.** 20 to 50%

**Q.** Which peptide exchange yield does the source give for NDEIDKLTGY here?
**A.** > 75%

**Q.** How did the peptide exchange yield turn out when ESAPKEVSRY was run?
**A.** 20 to 50%

**Q.** For RMQEGSEVY, which peptide exchange yield is on record?
**A.** 20 to 50%

**Q.** For GSPDAVVSY, which peptide exchange yield is on record?
**A.** 10 to 20%

**Q.** CVIETFHKY was tested. Which peptide exchange yield did it give?
**A.** 50 to 75%

**Q.** How did the peptide exchange yield turn out when YTDLTTIQV was run?
**A.** > 75%

**Q.** Which peptide exchange yield does the source give for LTEGHSGNY here?
**A.** > 75%

**Q.** For SLMVASLTY, which peptide exchange yield is on record?
**A.** 20 to 50%

**Q.** DVERIKDTY was tested. Which peptide exchange yield did it give?
**A.** 20 to 50%

**Q.** Which peptide exchange yield does the source give for RLAQYTIERY here?
**A.** 20 to 50%

**Q.** ETDWGLLKGHTY was tested. Which peptide exchange yield did it give?
**A.** > 75%

**Q.** How did the peptide exchange yield turn out when VTDIDELGK was run?
**A.** 50 to 75%

**Q.** How did the peptide exchange yield turn out when GTNLPTLLW was run?
**A.** 10 to 20%

**Q.** With NVKEAPTEY as the binder, how does the peptide exchange yield read?
**A.** 20 to 50%

**Q.** With QTDINGGSLK as the binder, how does the peptide exchange yield read?
**A.** 50 to 75%

**Q.** LSSAVNPIIY was tested. Which peptide exchange yield did it give?
**A.** 20 to 50%

**Q.** DTLEAATSLY was tested. Which peptide exchange yield did it give?
**A.** 20 to 50%

**Q.** Which peptide exchange yield does the source give for TDVERIKDTY here?
**A.** 50 to 75%

**Q.** Which peptide exchange yield does the source give for RINSATGQY here?
**A.** 20 to 50%

**Q.** Which peptide exchange yield does the source give for DTDPLKAAGL here?
**A.** 10 to 20%

**Q.** For KSFDDIAKY, which peptide exchange yield is on record?
**A.** 20 to 50%

**Q.** How did the peptide exchange yield turn out when VMDTLGLFY was run?
**A.** > 75%

**Q.** How did the peptide exchange yield turn out when MMTDLTSVY was run?
**A.** 50 to 75%

**Q.** How did the peptide exchange yield turn out when VTKYIAGPY was run?
**A.** 20 to 50%

**Q.** For GIEMTYETY, which peptide exchange yield is on record?
**A.** 20 to 50%

**Q.** How did the peptide exchange yield turn out when KTELETALYY was run?
**A.** 50 to 75%

**Q.** How did the peptide exchange yield turn out when VLDSLLAQY was run?
**A.** > 75%

**Q.** With LAFYYGMY as the binder, how does the peptide exchange yield read?
**A.** 20 to 50%

**Q.** SLPEFGLTY was tested. Which peptide exchange yield did it give?
**A.** 20 to 50%

**Q.** With EVLDSLLAQY as the binder, how does the peptide exchange yield read?
**A.** 20 to 50%

**Q.** For SMIRVGTNY, which peptide exchange yield is on record?
**A.** 20 to 50%

**Q.** YLESHGLAY was tested. Which peptide exchange yield did it give?
**A.** > 75%

**Q.** How did the peptide exchange yield turn out when AQEAAVFLTLY was run?
**A.** 50 to 75%

**Q.** LLISKAEDY was tested. Which peptide exchange yield did it give?
**A.** 20 to 50%

**Q.** KLTDYINANY was tested. Which peptide exchange yield did it give?
**A.** 20 to 50%

**Q.** Which peptide exchange yield does the source give for YLNEWGSRF here?
**A.** 20 to 50%

**Q.** For LTSEDTGAY, which peptide exchange yield is on record?
**A.** 50 to 75%

Reference: patent publication US20200087364A1 (IMMATICS BIOTECHNOLOGIES, published 2020)
